Test [1] concerns the target T1, HLA-Cw*0102 on TAP deficient 721.174 cells (human (endogenous in 721.174)). Nature of the test: FACS. In general terms: A flow cytometer gives signals particle by particle.
Test [2] has as its target T1, HLA-Cw*0102 on TAP deficient 721.174 …. The test is described as follows: FACS. The source holds these as a separate data set.

Where two headings read alike, the source gives them in different places.

For the molecule VAPWNSRAL [VAPWNSRAL peptide], the Kd (as a rule, the equilibrium constant for the complex coming apart) in test [1] is 190 nM. Same read-out and setting: for VAPWNSDAL [VAPWNSDAL peptide] the value was 140 nM. In test [2], VAPWNSLSL gave a Kd of 180 nM. The molecule VAPWNSFAL [VAPWNSFAL peptide] displayed a Kd in test [1] of 140 nM.
